Assays:
[1] = biological target: Ile83Glu anti-HER2 memAb; test: SPR; memAb variant amine-coupled to a CM5 chip, peptide flowed over at 30 uL/min, HBS-EP+, 37 °C, Biacore T100, 1:1 binding model
[2] = biological target: memAb anti-HER2 (meditope-enabled, trastuzumab-based anti-HER2 antibody); test: SPR; memAb anti-HER2 amine-coupled on a CM5 chip, meditope flowed over at 30 uL/min, HBS-EP+, 25 °C, 1:1 model, global fit, n=1 (authors estimate the error at 10-50%)
[3] = biological target: long meditope ((Ac)…); test: SPR; conditions: 37 °C (red point beside label LE); n = 1; parent: est. 5.3; read off a plot
[4] = biological target: anti-HER2 memAb (trastuzumab-based, meditope-enabled anti-HER2 antibody); test: SPR; memAb variant amine-coupled to a CM5 chip, peptide flowed over at 30 uL/min, HBS-EP+, 25 °C, Biacore T100, 1:1 binding model
anti-HER2 memAb (trastuzumab-based, meditope-enabled anti-HER2 antibody), sequence (heavy, as listed by the source, chain 1 of 2): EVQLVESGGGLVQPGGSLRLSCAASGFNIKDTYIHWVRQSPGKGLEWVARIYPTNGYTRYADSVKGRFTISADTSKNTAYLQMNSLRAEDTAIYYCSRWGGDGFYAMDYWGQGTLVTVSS
anti-HER2 memAb (trastuzumab-based, meditope-enabled anti-HER2 antibody), sequence (light, as listed by the source, chain 2 of 2): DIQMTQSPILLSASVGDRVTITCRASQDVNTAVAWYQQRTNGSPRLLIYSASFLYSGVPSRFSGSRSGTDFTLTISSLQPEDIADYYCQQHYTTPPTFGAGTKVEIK

memAb anti-HER2 (meditope-enabled, trastuzumab-based anti-HER2 antibody), sequence (heavy, as listed by the source, chain 1 of 2): as the sequence (heavy, as listed by the source, chain 1 of 2) above
Ile83Glu anti-HER2 memAb, sequence (heavy, as listed by the source, chain 1 of 2): as above
Ile83Glu anti-HER2 memAb, sequence (light, as listed by the source, chain 2 of 2): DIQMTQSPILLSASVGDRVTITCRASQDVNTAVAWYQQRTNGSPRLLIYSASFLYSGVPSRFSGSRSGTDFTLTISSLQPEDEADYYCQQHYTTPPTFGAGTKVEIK

In the case of “5-diphenylalanine-8-Arg-(PEG)2-azido-meditope ((Ac)CQFDA(Ph)2STRXLRCGGSK, X = arginine-(PEG)2-azide) (peptide)”, the Kd [1] is reported as 0.0021 µM and the half-life [1] is reported as 1.38 h.
In the case of CQFDA(Ph)2STRRLKC meditope (peptide), the koff [2] is reported as 0.008 s⁻¹ and the kon [2] is reported as 200000 M⁻¹ s⁻¹.
In the case of “anti-HER2 memAb (trastuzumab-based, meditope-enabled anti-HER2 antibody) LC:Ile83Glu”, the kon (log10(M-1 s-1)) [3] is reported as 5.6.
In the case of “meditope with Leu5 substituted by L-diphenylalanine (peptide)”, the Kd [4] is reported as 0.04 µM.

From paper PMC5910394, “Mechanically interlocked functionalization of monoclonal antibodies” (Nature Communications, 2018)
